# Measurements from US20110052551A1, “CARDIAC MYOCYTE MORPHOGENIC COMPOSITIONS AND METHODS OF USE THEREFOR” (priority 2008, published 2011).
# Entries after “also recorded” stand apart in the source; their conditions may differ.
# B1: Wnt3a: recombinant Wnt3a protein, canonical Wnt, used at 150 ng/ml (protein, UniProt P56704 19-352, looked up)
# Protein Wnt-3a: SYPIWWSLAVGPQYSSLGSQPILCASIPGLVPKQLRFCRNYVEIMPSVAEGIKIGIQECQHQFRGRRWNCTTVHDSLAIFGPVLDKATRESAFVHAIASAGVAFAVTRSCAEGTAAICGCSSRHQGSPGKGWKWGGCSEDIEFGGMVSREFADARENRPDARSAMNRHNNEAGRQAIASHMHLKCKCHGLSGSCEVKTCWWSQPDFRAIGDFLKDKYDSASEMVVEKHRESRGWVETLRPRYTYFKVPTERDLVYYEASPNFCEPNPETGSFGTRDRTCNVSSHGIDGCDLLCCGRGHNARAERRREKCRCVFHWCCYVSCQECTRVYDVHTCK
# Tests used:
# Assay type in all cases: cell-based, mice
# unfractionated BMMNCs [1] = assay: qRT-PCR of cardiac-specific mRNA levels in cultured BMMNCs; conditions: 21 days of culture
# Description: Induction of differentiation. To assess the influence of ectopic expression of Wnt11 on BMMNC differentiation, Wnt11 conditioned medium (Wnt11-CM) was generated. Specifically, unfractionated BMMNCs were co-cultured with Wnt11-expressing HEK-293 cells (Wnt11/293-2; designated as Wnt11-CM), under the same conditions used to culture BMMNCs. In order to achieve strict separation of cell types during co-culture experiments, BMMNC and Wnt11/293 cells were separated into upper and lower chambers of a TRANSWELL® co-culture system. […]
# Assessment of mRNA expression by quantitative real-time RT-PCR (qRT-PCR). […] Prior to mRNA extraction, cell number was determined and calculated by Trypan blue exclusion. cDNA was generated from freshly isolated (designated as baseline) and cultured unfractionated BMMNCs at days 0, 3, 7, and 21 (see FIG. 9A) using QUANTISCRIPT REVERSE TRANSCRIPTASE™ (Qiagen Inc., Valencia, Calif., United States of America) contained in RT master mix of Cell to cDNA kits according to manufacturer's protocol. […]
# To avoid amplification of contaminating DNA, all validated qRT-PCR primers were designed to cross […] sequences within the cDNA to be amplified. Quantitative qRT-PCR analysis was performed in an ABI Prism 7900H sequence detection system (Applied Biosystems, Foster City, Calif.) using QUANTITECT™ SYBR® Green Real Time PCR kits. […]
# unfractionated BMMNCs [2] = assay: Immunocytochemistry for Oct-4-positive BMMNCs; conditions: 21 days, 150 ng/ml
# Protocol: Additionally, to assess the influence of Wnt3a on cellular differentiation, unfractionated BMMNCs were cultured separately in the presence of 150 ng/ml of recombinant Wnt3a protein under the same conditions used to culture unfractionated BMMNCs, using pcDNA3/293 cells containing the empty vector as controls (see FIG. 9A).
# Immunocytochemistry. Cells were fixed on glass cover-slides with 4% paraformaldehyde for 20 minutes at 4° C. Cells were washed four times and permeabilized with BD PERM/WASH™ (containing saponin; BD Biosciences, San Jose, Calif., United States of America). For immunostaining, separate preparations of BD PERM/WASH™ containing primary monoclonal antibodies against either cardiac troponin T (cTnT; Santa Cruz Biotechnology, Santa Cruz, Calif., United States of America) or cardiac myosin heavy chain (cMyHC; Novus Biologicals, Inc., Littleton, Colo., United States of America) or connexin-43 or Oct-4 were prepared; all primary antibodies, save cMyHC, were purchased from Santa Cruz Biotechnology. Each preparation also contained primary monoclonal antibodies against nestin, glial fibrillary acidic protein (GFAP), CD11B, Gr-1 (myeloid lineage markers), the CD45 epitope, myogenin […]
# unfractionated BMMNCs [3] = assay: Assessment of cardiac differentiation by immunocytochemistry (cMyHC, cTnT); conditions: 21 days of culture
# Description: Induction of differentiation. To assess the influence of ectopic expression of Wnt11 on BMMNC differentiation, Wnt11 conditioned medium (Wnt11-CM) was generated. Specifically, unfractionated BMMNCs were co-cultured with Wnt11-expressing HEK-293 cells (Wnt11/293-2; designated as Wnt11-CM), under the same conditions used to culture BMMNCs. In order to achieve strict separation of cell types during co-culture experiments, BMMNC and Wnt11/293 cells were separated into upper and lower chambers of a TRANSWELL® co-culture system. Wnt11/293-2 or pcDNA3/293 (empty vector) cells (the controls in this experiment) were cultured in the upper chamber on the polyester (PET) membrane of a 24 mm TRANSWELL® insert, and unfractionated BMMNCs were cultured in the lower chamber as described above.
# Moreover, to eliminate the possibility of cell fusion or cell-cell contact as a requirement for Wnt11-mediated effects, a membrane pore size of 0.4 μm was chosen, thus preventing egression of Wnt11/293-2 cells to the lower compartment that contained BMMNCs. Of note, TRANSWELL® inserts were maintained separately without cells until day 10 of BMMNC attachment. […]
# Assessment of cardiac differentiation. For quantitative assessment of cardiomyocytic differentiation, an average of 2400 cells/plate were counted. Multiple fields from all 4 quarters of the plate were systematically evaluated. […]
molecule,measurement,setting,value
B1,cardiac-specific transcripts,unfractionated BMMNCs [1],no cardiac-specific transcripts were detected
same,number of Oct-4-positive BMMNCs compared with untreated control,unfractionated BMMNCs [2],marked increase; also recorded: a much greater number
same,"expression of cardiac-specific contractile proteins (cTnT, cMyHC)",unfractionated BMMNCs [3],not observed
